# Assay results as given in article PMC3178889 (Nature neuroscience, 2011).
# Entries after “also recorded” stand apart in the source; their conditions may differ.
# B1: GCAP1: N-myristoylated GCAP1, Ca^2+-binding protein (protein)
# chain: MGNIMEGKSVEELSSTECHQWYKKFMTECPSGQLTLYEFRQFFGLKNLSPSASQYVEQMFETFDFNKDGYIDFMEYVAALSLVLKGKVEQKLRWYFKLYDVDGNGCIDRDELLTIIRAIRTINPWSDSSMSAEEFTDTVFAKIDINGDGELSLEEFMEGVQKDQMLLDTLTRSLDLTGIVRRLQNGEHEEAGTGDLAAEAAG
# modifications: N-myristoylated
# B2: cone Tα: cone transducin α-subunit (protein)
# chain: MGSGASAEDKELAKRSKELEKKLQEDADKEAKTVKLLLLGAGESGKSTIVKQMKIIHQDGYSPEECLEYKAIIYGNVLQSILAIIRAMPTLGIDYAEVSCVDNGRQLNNLADSIEEGTMPPELVEVIRKLWKDGGVQACFDRAAEYQLNDSASYYLNQLDRITAPDYLPNEQDVLRSRVKTTGIIETKFSVKDLNFRMFDVGGQRSERKKWIHCFEGVTCIIFCAALSAYDMVLVEDDEVNRMHESLHLFNSICNHKFFAATSIVLFLNKKDLFEEKIKKVHLSICFPEYDGNNSYEDAGNYIKSQFLDLNMRKDVKEIYSHMTCATDTQNVKFVFDAVTDIIIKENLKDCGLF
# B3: farnesylated Tγ: farnesylated transducin γ-subunit (protein)
# chain: MPVINIEDLTEKDKLKMEVDQLKKEVTLERMMVSKCCEEVRDYIEERSGEDPLVKGIPEDKNPFKELKGGCVIS
# modifications: farnesylated
# B4: recoverin: Ca^2+-binding protein recoverin (protein)
# chain: MGNSKSGALSKEILEELQLNTKFTEEELSAWYQSFLKECPSGRITRQEFESIYSKFFPDSDPKAYAQHVFRSFDANSDGTLDFKEYVIALHMTTAGKPTQKLEWAFSLYDVDGNGTISKNEVLEIVMAIFKMIKPEDVKLLPDDENTPEKRAEKIWAFFGKKEDDKLTEEEFIEGTLANKEILRLIQFEPQKVKERIKEKKQ
# Tested on: GST-UNC119
# Assay: GST-UNC119 pulldown of proteins from retina lysates or HEK cells
# Assay type: binding, bovine
# Details: bovine or mouse retina lysate; Coomassie/LC-MS/MS or immunoblot
row,Molecule,interaction with GST-UNC119 in pulldown from retina lysate
1,B1,does not interact with GST-UNC119; also recorded: failed to interact
2,B2,Pulldown of rod and cone Tα
3,B3,not with farnesylated Tγ
4,B4,failed to interact
